The results in this text go back to article PMC8040265, “A polysaccharide utilization locus from the gut bacterium Dysgonomonas mossii encodes functionally distinct carbohydrate esterases” (The Journal of Biological Chemistry, 2021).

Common to all, as to assay: model substrate hydrolysis, Michaelis-Menten fit
Type in all cases: biochemical, Dysgonomonas mossii
What all share (details): 37 °C

Substrate in data set [1]: CC(=O)Oc1ccc2c(C)cc(=O)oc2c1
The source says:
(§1) model substrate hydrolysis, Michaelis-Menten fit on DmCE1B

Substrate in data set [2]: COC(=O)/C=C/c1cc(OC)c(O)c(OC)c1
Description: as §1

Substrate in data set [3]: CC(=O)Oc1ccc2c(C)cc(=O)oc2c1
The source says: model substrate hydrolysis, Michaelis-Menten fit on DmCE1B_ct
The source holds these as a separate data set.

Substrate in data set [4]: CC(=O)Oc1ccc2c(C)cc(=O)oc2c1
The source says:
(§2) model substrate hydrolysis, Michaelis-Menten fit on DmCE6A
This is another data set of the same source.

Substrate in data set [5]: CC(=O)Oc1ccc([N+](=O)[O-])cc1
Description: as §2

Substrate in data set [6]: CC(=O)Oc1ccc2c(C)cc(=O)oc2c1
The source says: (§3) model substrate hydrolysis, Michaelis-Menten fit on DmCE1A
The source holds these as a separate data set.

Substrate in data set [7]: CC(=O)Oc1ccc([N+](=O)[O-])cc1
Description: as §3
This is another data set of the same source.

Substrate in data set [8]: COC(=O)/C=C/c1cc(OC)c(O)c(OC)c1
Description: as §3
This is another data set of the same source.

Substrate in data set [9]: COC(=O)/C=C/c1ccc(O)cc1
From the text:
(§4) model substrate hydrolysis, Michaelis-Menten fit on DmCE1B_nt

Substrate in data set [10]: CC(=O)Oc1ccc2c(C)cc(=O)oc2c1
Description: as §4
This is another data set of the same source.

Substrate in data set [11]: COC(=O)/C=C/c1ccc(O)c(OC)c1
Description: as §4

Substrate in data set [12]: COC(=O)/C=C/c1cc(OC)c(O)c(OC)c1
Description: as §4
This is another data set of the same source.

The term Km denotes the substrate concentration at which the rate is half of its maximum. Broadly, the kcat is the number of substrate molecules converted per active site and unit of time at saturation. In general, kcat/Km refers to the turnover number divided by the Michaelis constant.

B1: DmCE1B (Dysgonomonas mossii DSM 22836) (protein)
chain: ISQNYKSVPNGYDIPRTGISHGQIDTVTYYSKTVDTNRKALVYTPPGYSKNKQYPVLYLLHGIGGDEKEWFSHGQPQVILDNLYADKKIVPMIVVLPNGRAMKDDRAIGNIMEAPKVEAFATFEKDLLNDLIPFIQKTYPVLKNQENRALAGLSMGGGQSLNFGLGNLDIFAWVGGFSSAPNTKTPEVLVPNPDDAKKKLKLLWISCGDKDGLLSFSKRTHDYLAKNQVPHVYQVIPNGYHDFNIWKQNLYMFSQLLFKPVTADLIEQYSYIPEEAEVGISASTNIPGAQYPQILSGNRVLFRIKAPDAKRVQVDLGKKYDMVREEEGSWAITTDPIVEGFHYYSILIDGVAVCDPASRTFYGMSRMASGIEIPEEGVDYYNLKNVPHGQIRQIRYFSDVTKAWRRAFVYTPAGYDANTSQRYPVLYLQHGGGEDETGWPNQGKMDAIIDNLIAEGKAKPMIVVMDNGYAVDPSASSANSPQGLRGLFQNSALEKVFINEIIPLVDKEFRTIADRDHRAMAGLSMGGFQAFQIAMTNLDKFAYVGGFSGGGIIEQGGDFSKMYNNVWSDVDTFNKRVKLIYLSIGTAEPTNMYQTVNNFHKEFEKAGIKHVYYESPGTSHEWLTWRRSLNQFAELLFK
notes: full length, signal peptide removed; CE1-CBM48-CE1; dimer in solution; pET28a-TEVc, IMAC purified from E. coli BL21(DE3)
B1: in [1], the Km was determined as 0.37 ± 0.06 mM, the kcat is 870 ± 3 s⁻¹ and the kcat/Km stood at 2.3e+06 ± 400000 M⁻¹ s⁻¹. Besides, in data set [2], the Km is 0.36 ± 0.10 mM, the kcat came out at 5 ± 0.83 s⁻¹ and the kcat/Km worked out at 14000 ± 4500 M⁻¹ s⁻¹.

B2: DmCE1B_ct (Dysgonomonas mossii DSM 22836) (protein)
chain: AEVGISASTNIPGAQYPQILSGNRVLFRIKAPDAKRVQVDLGKKYDMVREEEGSWAITTDPIVEGFHYYSILIDGVAVCDPASRTFYGMSRMASGIEIPEEGVDYYNLKNVPHGQIRQIRYFSDVTKAWRRAFVYTPAGYDANTSQRYPVLYLQHGGGEDETGWPNQGKMDAIIDNLIAEGKAKPMIVVMDNGYAVDPSASSANSPQGLRGLFQNSALEKVFINEIIPLVDKEFRTIADRDHRAMAGLSMGGFQAFQIAMTNLDKFAYVGGFSGGGIIEQGGDFSKMYNNVWSDVDTFNKRVKLIYLSIGTAEPTNMYQTVNNFHKEFEKAGIKHVYYESPGTSHEWLTWRRSLNQFAELLFK
notes: dimer; IMAC purified from E. coli BL21(DE3)
For the protein B2, in [3], the Km stood at 0.42 ± 0.10 mM, the kcat was determined as 11 ± 0.71 s⁻¹ and the kcat/Km is 26000 ± 6600 M⁻¹ s⁻¹.

B3: DmCE6A (Dysgonomonas mossii DSM 22836) (protein)
chain: QDKFHVFLCFGQSNMEGHAKIEAQDTIDIDGRFMMLQTVDCPELGRFKGNWYKAIPPLARCHTGLSPADYFGRTMVANLPSDTKVGVINVAVGGCRIELFDKENFQSYVDQSPEWLKNMVNEYDGNPYVRLIEMAKLAQSQGGVIKGILLHQGESNNGETDWPEKVRKVYDNILKDLNFEPNSIPLLAGELLDEEQYGACANMNLIINTLPNVIPNAHVISSKGCEGVKDRLHFSAAGYRTLGSRYAEKMLQLYNENSLKK
notes: signal peptide removed; single CE6 domain; pET28a-TEVc, IMAC purified from E. coli BL21(DE3)
With B3, the Km in data set [4] is 0.029 ± 0.003 mM. Moreover, in [5], the Km is reported as 0.18 ± 0.01 mM, the kcat came to 59 ± 0.87 s⁻¹ and the kcat/Km was found to be 320000 ± 20000 M⁻¹ s⁻¹.

B4: DmCE1A (Dysgonomonas mossii DSM 22836) (protein)
chain: QDLEGSISSEYNIPEGQYPIVNKDLSATFRIQAPSAQSMQVDICGKKYPMTKDAAGIWEATTDPLVVGFHYYFLLIDGVSVVDPASQTFFGCGRMASGIEIPEPRAESAYYSYQKDIPHGQVRECYYFSKVEGKQRRCFLYTPAEYETNPTKRYPVLYLQHGMGEDETGWSRQGKMAFILDNQISEKKCVPMIVVMDYGNCGYIHGTKKGESQKEFGALFTPILINDIIPYIDSNFRTLSDRDNRAMAGLSWGGHQAFETTLNNIDKFSHIGAFSGALFFLKEDNLKKAYNGVFAQPNVFNKKVHTLFLGMGSEEGMGSKRISEFLKANGINNTYYESAGTHHEWLTWRRCLNQFLPLIFKQN
notes: signal peptide removed; N-terminal CBM48 + CE1 domain; pET28a-TEVc, IMAC purified from E. coli BL21(DE3)
B4: in data set [6], the Km is reported as 0.55 ± 0.06 mM, the kcat stood at 38.6 ± 1.26 s⁻¹ and the kcat/Km was determined as 70000 ± 8000 M⁻¹ s⁻¹. In addition, in [7], the Km was determined as 4.4 ± 0.67 mM, the kcat came to 1.03 ± 0.07 s⁻¹ and the kcat/Km worked out at 230 ± 40 M⁻¹ s⁻¹. Moreover, in data set [8], the Km was found to be 0.18 ± 0.04 mM, the turnover number (kcat) turned out to be 0.13 ± 0.01 s⁻¹ and the kcat/Km stood at 700 ± 200 M⁻¹ s⁻¹.

B5: DmCE1B_nt (Dysgonomonas mossii DSM 22836) (protein)
chain: ISQNYKSVPNGYDIPRTGISHGQIDTVTYYSKTVDTNRKALVYTPPGYSKNKQYPVLYLLHGIGGDEKEWFSHGQPQVILDNLYADKKIVPMIVVLPNGRAMKDDRAIGNIMEAPKVEAFATFEKDLLNDLIPFIQKTYPVLKNQENRALAGLSMGGGQSLNFGLGNLDIFAWVGGFSSAPNTKTPEVLVPNPDDAKKKLKLLWISCGDKDGLLSFSKRTHDYLAKNQVPHVYQVIPNGYHDFNIWKQNLYMFSQLLFKPVTADLIEQYSYIPEEAEVGISASTNIPGAQYPQILSGNRVLFRIKAPDAKRVQVDLGKKYDMVREEEGSWAITTDPIVEGFHYYSILIDGVAVCDPASRTFYGMSRMASGIEIPE
notes: N-terminal CE1 domain + CBM48 (CBM48 is residues 294-393), signal peptide removed; IMAC purified from E. coli BL21(DE3)
As to B5, the Km in data set [9] was found to be 0.31 ± 0.09 mM; in [10], 0.30 ± 0.04 mM; in [11] it was 0.16 ± 0.03 mM; in data set [12], 0.29 ± 0.07 mM. Besides, the kcat in [9] is 0.61 ± 0.1 s⁻¹; in data set [10], 630 ± 22 s⁻¹; in data set [11], 1.8 ± 0.13 s⁻¹; in [12], 2.7 ± 0.34 s⁻¹. The kcat/Km in data set [9] turned out to be 2000 ± 700 M⁻¹ s⁻¹; in [10], 2.1e+06 ± 300000 M⁻¹ s⁻¹; in [11], 11000 ± 2000 M⁻¹ s⁻¹; in data set [12], 9200 ± 2400 M⁻¹ s⁻¹.
